Laboratory results taken from article PMC9653380.

Assays:
[1] = molecular target: variant S-trimer (prefusion-stabilized SARS-CoV-2 spike trimer, S-6P backbone, with K417N, E484K, N501Y and D614G) (SARS-CoV-2 | bacteriophage T4); assay: SEC
[2] = molecular target: Fc-tagged human ACE2 (human) (UniProt Q9BYF1); assay: BLI

Which results are given for “variant S-trimer (prefusion-stabilized SARS-CoV-2 spike trimer, S-6P backbone, with K417N, E484K, N501Y and D614G)”?
stoichiometry N [1]: 3; Kd [2]: 9.14 nM
